Results published in paper PMC8815872, “A novel dual-labeled small peptide as a multimodal imaging agent for targeting wild-type EGFR in tumors” (PLoS ONE, 2022).
Where two headings read alike, the source gives them in different places. Where a SMILES comes first, the peptide text is derived from it. The star is where a group is joined. 5TAMRA = CN(C)c1ccc2c(c1)Oc1cc(N(C)C)ccc1C21OC(=O)c2cc(C(=O)*)ccc21

What was measured:
[1] = test system: SW620 cells (wtEGFR-negative); test: Cellular uptake using confocal microscopy, SW620 cells; format: cell-based, human; conditions: 200 nM, 37°C, 1 h, serum free medium
Method: (§1) NCI-H460 and SW620 cells (1 × 10^5 cells) were cultured on the top of a cover-slip slide for 24 h at 37°C. The medium was replaced with fresh serum free medium (500 μL) containing Tc-99m SYPIPDT-ECG-TAMRA (200 nM). Cells were then incubated at 37°C for 1 h. These cells were rinsed three times with phosphate-buffered saline (PBS). The cell were stained with anti-human wtEGFR antibody (cat. 4267S; Cell Signaling Technology, Danvers, MA, USA) and Alexa Fluor® 488-conjugated goat anti-rabbit secondary antibody (cat. 111-545-003, 1:100 dilution; Jackson Immuno Research Inc., West Grove, PA, USA). The slides were covered with fluorescent mounting medium (Dako, Glostrup, Denmark) and closed with cover glasses. The confocal microscopic study was performed with a FV1200 confocal microscope (Olympus, Pittsburgh, PA, USA) with a 100× oil immersion lens.

[2] = test system: NCI-H460 cells (wtEGFR-positive); test: Cellular uptake using confocal microscopy, NCI-H460 cells; format: cell-based, human; conditions: 200 nM, 37°C, 1 h, serum free medium
Method: as §1

EGFR = conditions: concentration dependent; cited from earlier work
From the text: A major drawback of these imaging agents is their large size, which hinders efficient penetration into the targeted tissue and prevents rapid clearance from the non-targeted tissues. Therefore, efforts have been made to reduce the size of the targeting agents. Monoclonal antibody fragments such as Fab′, scFv, Affibody and Nanobody, have been investigated. However, the antibody fragments show reduced binding affinity for their target compared to the parental antibody, and their stability also decreases over time. In the present study, we tried to overcome these drawbacks by utiliz ...

[3] = test system: NCI-H460 cells (wtEGFR-positive); test: Saturation binding study, NCI-H460 cells; parameters: species or system human; conditions: 37°C, 1 h
Method: NCI-H460 and SW620 cells were cultured in a humidified atmosphere with 5% carbon dioxide at 37°C. The cells were maintained in Dulbecco modified Eagle medium supplemented with 10% fetal bovine serum, streptomycin (100 μg/ml), and penicillin (100 U/ml). The cells were used for experiments and studies once about 80% confluence had been reached.
The binding affinities of Tc-99m SYPIPDT-ECG-TAMRA for NCI-H460 and SW620 cells were evaluated by saturation binding studies as described previously. Briefly, NCI-H460 and SW620 cells were plated into 96-well plates at a density of 1 × 10^4 cells/well and cultured overnight. Cells were washed twice (5 min each) using ice-cold binding buffer (25 mM HEPES and 1% bovine serum albumin). A concentration gradient (0–2,000 nM) of Tc-99m SYPIPDT-ECG-TAMRA was added to the wells and the cells were maintained at 37°C for 1 h. The total volume of each well was 200 μl. After cells were washed twice using ice-cold binding buffer, the cells of each well were obtained for gamma counting. Radioactivities of collected cells were measured using a 1480 Wizard 3 gamma counter (PerkinElmer Life and Analytical Sciences, Wallingford, CT, USA). The binding affinity value (Kd) was calculated by non-linear regression models of GraphPad Prism software version 5.03 (GraphPad Software, La Jolla, CA, USA). Each data point is the average value of four determinations.

[4] = test system: NCI-H460 and SW620 tumor tissue; test: Confocal microscopy with immunohistochemical staining of tumor tissue; format: in vivo, mice; conditions: frozen tumor slices
Method: After the ex vivo imaging study, tumor tissues were snap-frozen in liquid nitrogen. Frozen tumor tissues were cut into slices (10 μm in thickness). After drying at room temperature, slices were fixed with ice-cold acetone for 10 min and then air dried at room temperature for 20 min. Tumor sections were maintained with 5% goat serum for 30 min at room temperature for blocking of nonspecific binding. Then, tumor sections were stained with anti-human wtEGFR antibody (cat. 4267S; Cell Signaling Technology, Danvers, MA, USA) for 1 h at room temperature. After being rinsed with PBS buffer, tumor slides were incubated with Alexa Fluor® 488-conjugated goat anti-rabbit secondary antibody (cat. 111-545-003, 1:100 dilution; Jackson Immuno Research Inc., West Grove, PA, USA). After being washed three times with PBS, tumor slides covered using Prolong® Gold Antifade Reagent with 4’,6-diamidino-2-phenylindole (DAPI; Invitrogen, Carlsbad, CA, USA) and closed with cover glasses. Confocal microscopic study was performed using a FV1200 confocal microscope (Olympus) with a 60× oil immersion lens.

[5] = Radiochemical stability in saline; format: physicochemical; conditions: room temperature, silica capillary column radio-chromatography, mean ± SD, n = 3
Method: To evaluate the radiochemical stability of the Tc-99m peptide complex, the labeled complex (0.1 ml) was incubated with 1 ml of saline at room temperature and freshly collected human serum at 37°C. Samples were collected at 30 min and at 1, 3, and 24 h and were analyzed using capillary column with saline (Rf of Tc-99m SYPIPDT-ECG-TAMRA and free pertechnetate = 0.9–1.0; Rf of colloid = 0.0–0.1) and acetone (Rf of free pertechnetate = 0.9–1.0; Rf of Tc-99m SYPIPDT-ECG-TAMRA and colloid = 0.0–0.1) as mobile phases. All experiments were conducted in triplicate (n = 3).

in vivo = conditions: female, athymic BALB/c nu/nu, mouse, total radioactivity, Mean %ID/g (SD)
Method: (§2) Six-week-old female homozygous athymic BALB/c nu/nu mice (weighing 16–18 g) were purchased from Damul Science (Daejeon, Korea) and kept in cages. They were provided free access to food and tap water. After one week of adaptation to laboratory conditions, the mice were subcutaneously inoculated with 1 × 10^7 NCI-H460 (wtEGFR-positive) and SW620 (wtEGFR-negative, as an internal reference) cells (in 0.1 ml PBS) in both sides of the anterior chest region, respectively. The tumors were allowed to grow to about 300 to 400 mm^3 in volume. Tumor volume was calculated using the formula: V (mm^3) = 0.5 × a × b^2, where a and b represent the long and perpendicular short diameters of the tumor by caliper measurements. Approximately 21 days after inoculation, gamma camera imaging and biodistribution studies were performed.
(§3) Following the in vivo gamma camera imaging study, mice were sacrificed by cervical dislocation after anesthesia by intraperitoneal injection of 100 mg/kg bodyweight ketamine (n = 5).
(§4) Tissues of tumors and selected organs were weighed and collected into pre-weighed gamma counter tubes. The radioactivity of the tissues were counted using a gamma counter (1480 Wizard 3; PerkinElmer Life and Analytical Sciences) and counts per minute were decay-corrected. Results are expressed as a percentage injected dose per gram of wet tissue (%ID/g). Total activities injected per animal were calculated by evaluating the difference between pre-injection syringe counts and remaining syringe counts after injection.

[6] = test system: mice bearing NCI-H460 and SW620 tumors; test: Ex vivo fluorescent imaging of excised organs and tumors; conditions: excised tumors after in vivo gamma camera imaging, n = 5
Method: Exposure time was 2.0 s per image. The images were analyzed using the dedicated software.

[7] = test system: mice bearing NCI-H460 and SW620 tumors
Method: as §2, §3, §4

[8] = NCI-H460 tumor (wtEGFR-positive)

SYPIPDT-GHEG-ECG-K-tetramethylrhodamine [SYPIPDT-ECG-TAMRA, unlabeled precursor peptide with GHEG linker, ECG chelator and TAMRA dye]
fluorescence activity of TAMRA on cells (confocal microscopy) [1]: barely detectable
fluorescence activity of TAMRA on cells (confocal microscopy) [2]: strong fluorescence activity

SYPIPDT [small 7-mer peptide ligand for wild-type EGFR identified by phage display (Hamzeh-Mivehroud et al.)]
diminished the increased EGF-dependent phosphorylation of EGFR (EGFR): 44%

CC[C@H](C)[C@H](NC(=O)[C@@H]1CCCN1C(=O)[C@H](Cc1ccc(O)cc1)NC(=O)[C@@H](N)CO)C(=O)N1CCC[C@H]1C(=O)N[C@@H](CC(=O)O)C(=O)N[C@H](C(=O)NCC(=O)N[C@@H](Cc1c[nH]cn1)C(=O)N[C@@H](CCC(=O)O)C(=O)NCC(=O)N[C@@H](CCC(=O)O)C(=O)N[C@@H](CS)C(=O)NCC(=O)N[C@@H](CCCCNC(=O)c1ccc2c(c1)C(=O)OC21c2ccc(N(C)C)cc2Oc2cc(N(C)C)ccc21)C(=O)O)[C@@H](C)O [Tc-99m SYPIPDT-ECG-TAMRA, Tc-99m SYPIPDT-GHEG-ECG-K-tetramethylrhodamine, metal not drawn] (H-SYPIPDTGHEGECGK(5TAMRA)-OH)
Kd ([3]; 0-2,000 nM, gamma counting, non-linear regression, four determinations per point, read-out: binding affinity value (Kd) for NCI-H460 cells): 76.5 ± 15.8 nM
Bmax ([3]; NCI-H460 cells): 3652 ± 189 fmol/mg protein
fluorescence within NCI-H460 tumor tissue (confocal microscopy) ([4]; NCI-H460 tumor): significant
fluorescent activity of TAMRA in SW620 tumor tissue (confocal microscopy) ([4]; SW620 tumor): barely detected
intact percentage incubated in saline ([5]; 30 min, 0.1 ml complex in 1 ml): 95.1 ± 0.6%
intact percentage incubated in saline ([5]; 1 h): 94.7 ± 1.3%
intact percentage incubated in saline ([5]; 3 h): 93.9 ± 1.1%
intact percentage incubated in saline ([5]; 24 h): 92.1 ± 1.4%
tissue uptake at 1 h (in vivo; Blood): 3.22 %ID/g
tissue uptake at 3 h (in vivo; Blood): 0.87 %ID/g
tissue uptake at 1 h (in vivo; Colon): 1.11 %ID/g
tissue uptake at 3 h (in vivo; Colon): 0.42 %ID/g
tissue uptake at 1 h (in vivo; Heart): 1.43 %ID/g
tissue uptake at 3 h (in vivo; Heart): 0.45 %ID/g
tissue uptake at 1 h (in vivo; Kidneys): 21.1 %ID/g
tissue uptake at 3 h (in vivo; Kidneys): 12.4 %ID/g
tissue uptake at 1 h (in vivo; Liver): 1.9 %ID/g
tissue uptake at 3 h (in vivo; Liver): 1.07 %ID/g
tissue uptake at 1 h (in vivo; Lungs): 2.23 %ID/g
tissue uptake at 3 h (in vivo; Lungs): 0.61 %ID/g
tissue uptake at 1 h (in vivo; Muscles): 0.79 %ID/g
tissue uptake at 3 h (in vivo; Muscles): 0.25 %ID/g
tissue uptake at 1 h (in vivo; [8]): 1.91 %ID/g
tissue uptake at 3 h (in vivo; [8]): 1.7 %ID/g
tissue uptake at 1 h (in vivo; SW620 tumor (wtEGFR-negative)): 1.27 %ID/g
tissue uptake at 3 h (in vivo; SW620 tumor (wtEGFR-negative)): 0.54 %ID/g
tissue uptake at 1 h (in vivo; Stomach): 1.68 %ID/g
tissue uptake at 3 h (in vivo; Stomach): 0.37 %ID/g
ex vivo fluorescent activity, NCI-H460 tumor versus SW620 tumor [6]: significantly higher fluorescent activity
fluorescence activity of TAMRA on cells (confocal microscopy) [2]: strong fluorescence activity
tumor to normal muscle ratio of the %ID/g values ([7]; 1 h after injection): 2.45 ± 0.22
tumor to normal muscle ratio of the %ID/g values ([7]; 3 h after injection): 7.13 ± 2.00
